Experimental findings from paper PMC10307800, “Structure of human CALHM1 reveals key locations for channel regulation and blockade by ruthenium red” (Nature Communications, 2023) are described below.

“And” between values parts separate entries of the source, which are not always exact repeats. Equal values may be shown once.

Series [1] has as its target human CALHM1Δct-Ile109Trp (C-terminal Strep-II tag) (human) (UniProt Q8IU99). As to the kind of experiment: cryo-EM structure; single-particle reconstruction in lipid nanodiscs, 20 mM HEPES-NaOH pH 7.5, 200 mM NaCl; with RuR (50 µM RuR, 1 mM EGTA; C8 and C1 maps) and RuR-free (1 mM EDTA).
Series [2] addresses chicken CALHM1Δct (residues 1-291, C-terminal Strep-II tag) (chicken). As to the kind of experiment: cryo-EM structure; single-particle 3D reconstruction in lipid nanodiscs (soybean polar extract, MSP2N2); chicken: 20 mM Tris pH 8.0, 150 mM NaCl, 1 mM EDTA; human: 20 mM HEPES-NaOH pH 7.5, 200 mM NaCl, 1 mM EDTA.
Series [3] has the same target. In words: cryo-EM 2D classification; 'top' views of 2D classification of the same nanodisc samples.
Series [4] concerns the target killifish CALHM1Δct (killifish). In words: cryo-EM 2D classification; reanalysis of the publicly available dataset EMPIAR #10444.
Series [5] concerns the molecule itself. As to the kind of experiment: cryo-EM 2D classification; 'top' views of 2D classification of the same nanodisc samples.
Series [6] concerns the molecule itself. As to the kind of experiment: cryo-EM structure; single-particle 3D reconstruction in lipid nanodiscs (soybean polar extract, MSP2N2); chicken: 20 mM Tris pH 8.0, 150 mM NaCl, 1 mM EDTA; human: 20 mM HEPES-NaOH pH 7.5, 200 mM NaCl, 1 mM EDTA.

For orientation: stoichiometry N means the number of molecules, sites or subunits per partner or assembly. In turn, “human CALHM1Δct-Ile109Trp (C-terminal Strep-II tag) (from UniProt Q8IU99 1-303) (domain or fragment)” gave a stoichiometry N in series [1] of 8. “chicken CALHM1Δct (residues 1-291, C-terminal Strep-II tag) (domain or fragment)”: the stoichiometry N in series [2] was 8; in series [3], 8 and 9. As for “killifish CALHM1Δct (domain or fragment)”, the stoichiometry N in series [4] was 8 and 9.

B1: human CALHM1Δct (calcium homeostasis modulator 1, residues 1-303, C-terminal Strep-II tag) (domain or fragment, UniProt Q8IU99 1-303, looked up)
chain: MMDKFRMIFQFLQSNQESFMNGICGIMALASAQMYSAFDFNCPCLPGYNAAYSAGILLAPPLVLFLLGLVMNNNVSMLAEEWKRPPGRRAKDPAVLRYMFCSMAQRALIAPVVWVAVTLLDGKCFLCAFCTAVPVSALGNGSLAPGLPAPELARLLARVPCPEIYDGDWLLAREVAVRYLRCISQALGWSFVLLTTLLAFVVRSVRPCFTQAAFLKSKYWSHYIDIERKLFDETCTEHAKAFAKVCIQQFFEAMNHDLELGHTHGTLATAPASAAAPTTPDGAEEEREKLRGITDQGTMNRLL
notes: calcium homeostasis modulator 1 (CALHM1), human, residues 1-303 (C-terminal truncation; residues 303-346 follow the CTH in the whole protein); Octamer in the 3D reconstruction; nonameric particles were also seen in 2D classes; also called hCALHM1Δct; hCALHM1∆ct; source: HEK293S GnTI- cells, baculovirus infection; purified (Strep-Tactin, SEC), reconstituted into lipid nanodiscs (MSP2N2, soybean …)
Turning to B1, the “stoichiometry N” value in series [5] was 9; in series [6], 8.
